Experimental data as given in patent US20240270866A1 (Alector, published 2024).

How the values were obtained:
[1] = target: T1, human SIRPA Fc fusion antigen (human, UniProt P78324 31-373); experiment: ForteBio IgG avid;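 also: ForteBio sensor-based avid binding of anti-SIRPA antibodies in IgG format, with the binding partner in solution at 100 nM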
T1 construct: heterologous signal peptide; not shown: human IgG1 Fc

[2] = target: T2, human SIRPβ1 Fc fusion antigen (human, UniProt O00241 30-371); experiment: ForteBio IgG avid;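 also: ForteBio sensor-based avid binding of anti-SIRPA antibodies in IgG format, with the binding partner in solution at 100 nM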
T2 construct: not shown: human IgG1 Fc
T2 sequence (O00241 30-371 limits assumed): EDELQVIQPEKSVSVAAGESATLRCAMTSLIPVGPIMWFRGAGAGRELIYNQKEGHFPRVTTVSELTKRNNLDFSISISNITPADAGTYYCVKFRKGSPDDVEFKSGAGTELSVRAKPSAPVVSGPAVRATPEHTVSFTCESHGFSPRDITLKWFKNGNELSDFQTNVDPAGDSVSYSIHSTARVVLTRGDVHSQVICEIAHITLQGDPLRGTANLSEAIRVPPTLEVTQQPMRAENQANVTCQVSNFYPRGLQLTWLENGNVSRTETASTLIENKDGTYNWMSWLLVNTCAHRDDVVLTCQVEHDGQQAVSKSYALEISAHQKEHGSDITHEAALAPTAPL

Binder	Kd [1] [nM]	Kd [2] [nM]	binding result [2]
SA-8-62 (antibody, V domains shown, IgG) VH: QVQLVESGGGLVKPGGSLRLSCAASGFTFSSYSMHWVRQAPGKGLEWVSSISSSDSWIYYADSVKGRFTISRDNAKNSLYLQMDSLRAEDTAVYYCAKERVDYWHGYGMDVWGQGTTVTVSS VL: not shown	0.371	4.67	–
SA-8-64 (antibody, V domains shown, IgG) VH: QVQLVESGGGLVKPGGSLRLSCAASGFTFSSYSMHWVRQAPGKGLEWVSSISSSDSWIYYADSVKGRFTISRDNAKNSLYLQMNSLRAEDTAVYYCAKEPRSYWHGYGMDVWGQGTTVTVSS VL: not shown	0.952	8.36	–
SA-8-67 (antibody, V domains shown, IgG) VH: EVQLVESGGGLVKPGGSLRLSCAASGFTFSSYSMHWVRQAPGKGLEWVSSISSSPSHIYYADSVKGRFTISRDNAKNSLYLQMNSLRAEDTAVYYCAKEPRSYWHGYGMDVWGQGTTVTVSS VL: not shown	1.84	14.2	–
SA-5-59 (antibody, V domains shown, IgG) VH: EVQLLESGGGLVQPGGSLRLSCAASGFTFDNYAMSWVRQAPGEGLEWVSAVSGSGGSTYYADSVRGRFTISRDNSKNTLYLQMDSLRAEDTAVYYCAKDTGIDFWARTPPYFDLWGRGTLVTVSS VL: DIQLTQSPSSVSASVGDRVTITCRASQDISSWLAWYQQKPGKAPKLLIYAASSLQSGVPSRFSGSGSGTDFTLTISSLQPEDFATYYCQQGYIFPRTFGGGTKVEIK	3.03	–	no binding (tested: 100 nM)
SA-56-86 (antibody, V domains shown, IgG) VH: QVQLVESGGGVVQPGGSLRLSCAASGFTFSYYGMSWVRQAPGKGLEWVASIWVDGSSKYYADSVKGRFTISRDNSKNTLYLQMNSLRAEDTAVYYCARGVETYSGPNWFDPWGQGTLVTVSS VL: DIQMTQSPSSVSASVGDRVTITCRASQGISSWLAWYQQKPGKAPKLLIYAASSLQSGVPSRFSGSGSGTDFTLTISSLQPEDFATYYCQQAIYFPITFGGGTKVEIK	0.339	12.4	–
SA-56-90 (antibody, V domains shown, IgG; also called SA-90) VH: QVQLVESGGGVVQPGRSLRLSCAASGSTFSHYGMSWVRQAPGKGLEWVASIWVDGSNKYYADSVKGRFTISRDNSKNTLYLQMDSLRAEDTAVYYCARGVETYSGPNWFDPWGQGTLVTVSS VL: DIQMTQSPSSVSASVGDRVTITCRASQGISSWLAWYQQKPGKAPKLLIYAASSLQSGVPSRFSGSGSGTDFTLTISSLQPEDFATYYCQQAIYFPITFGGGTKVEIK	0.378	–	no binding (tested: 100 nM)
SA-56-92 (antibody, V domains shown, IgG) VH: EVQLVESGGGVVQPGRSLRLSCAASGFTFSYYGMSWVRQAPGKGLEWVASIWVDGSNKYYADSVKGRFTISRDNSKNTLYLQMDSLRAEDTAVYYCATGVETYSGPNWFDPWGQGTLVTVSS VL: DIQMTQSPSSVSASVGDRVTITCRASQGISSWLAWYQQKPGKAPKLLIYAASSLQSGVPSRFSGSGSGTDFTLTISSLQPEDFATYYCQQAIYFPITFGGGTKVEIK	0.365	–	no binding (tested: 100 nM)
SA-56-85 (antibody, V domains shown, IgG; also called SA-85) VH: EVQLLESGGGVVQPGRSLGLSCAASGSTFSYYGMSWVRQAPGKGLEWVASIWVDGSNKYYADSVKGRFTISRDNSKSTLYLQMNSLRAEDTAVYYCARGVETYSGPNWFDPWGQGTLVTVSS VL: DIQMTQSPSSVSASVGDRVTITCRASQGISSWLAWYQQKPGKAPKLLIYAASSLQSGVPSRFSGSGSGTDFTLTISSLQPEDFATYYCQQAIYFPITFGGGTKVENQ	0.341	–	no binding (tested: 100 nM)
SA-56-95 (antibody, V domains shown, IgG) VH: EVQLLESGGGVVQPGRSLRLSCAASGFTFAHYGMAWVRQAPGKGLEWVAVIWVDGSPKYYADSVKGRFTISRDNSKNTLYLQMNSLRAEDTAVYYCAVARETYSGPNWFDPWGQGTLVTVSS VL: DIQMTQSPSSVSASVGDRVTITCRASQGISSWLAWYQQKPGKAPKLLIYAASSLQSGVPSRFSGSGSGTDFTLTISSLQPEDFATYYCQQAIYFPITFGGGTKVEIK	1.06	–	no binding (tested: 100 nM)
SA-56-89 (antibody, V domains shown, IgG; also called SA-89) VH: EVQLVESGGGVVQPGGSLRLSCAASGFTFSYYGMSWVRQAPGKGLEWVASIWVDGSNKYYADSVKGRFTVSRDNSKNTLYLQMDSLRAEDTAVYYCARGVETYSGPNWFDPWGQGTLVTVSS VL: DIQMTQSPSSVSASVGDRVTITCRASQGISSWLAWYQQKPGKAPKLLIYAASSLQSGVPSRFSGSGSGTDFTLTISSLQPEDFATYYCQQAIYFPITFGGGTKVEIK	0.415	–	no binding (tested: 100 nM)
SA-13-68 (antibody, V domains shown, IgG) VH: EVQLLESGGGLVQPGGSLRLSCAASGFTFTEYAMSWVRQAPGKRLEWVSAISGSGGSTYYADSVKGRFTISRDNSKNTLYLQMSSLRAEDTAVYYCARDNIQWGPHFYWGQGTLVTVSS VL: DIQMTQSPSSLSASVGDRVTITCRASQSISSYLNWYQQKPGKAPKLLIYAASSLQSGVPSRFSGSGSGTDFTLTISSLQPEDFATYYCQQGYIYPPTFGGGTKVEIK	1.92	3.45	–
SA-56-91 (antibody, V domains shown, IgG) VH: EVQLVESGGGVVQPGRSLRLSCAASGFTFAHYGMAWVRQAPGKGLEWVASIWVDGSNKYYADSVKGRFTISRDNSKNTLYLQMNSLRAEDTAVYYCATAVETYSGPNWFDPWGQGTLVTVSS VL: DIQMTQSPSSVSASVGDRVTITCRASQGISSWLAWYQQKPGKAPKLLIYAASSLQSGVPSRFSGSGSGTDFTLTISSLQPEDFATYYCQQAIYFPITFGGGTKVEIK	0.412	–	no binding (tested: 100 nM)
SA-56-87 (antibody, V domains shown, IgG) VH: EVQLVESGGGVVQPGRSLRLSCAASGFTFSYYGMSWVRQAPGKGLEWVASIWVDGSNKYYADSVKGRFTISRDNSKNTLYLQMNSLRAEDTAVYYCAFGLETYSGPNWFDPWGQGTLVTVSS VL: DIQMTQSPSSVSASVGDRVTITCRASQGISSWLAWYQQKPGKAPKLLIYAASSLQSGVPSRFSGSGSGTDFTLTISSLQPEDFATYYCQQAIYFPITFGGGTKVEIK	0.396	–	no binding (tested: 100 nM)
SA-56-88 (antibody, V domains shown, IgG) VH: EVQLVESGGGVVQPGRSLRLSCAASGFTFSYYGMSWVRQAPGKGLEWVASIWVDGSNKYYADSAKGRFTISRDNSKNTLYLQMNSLRAEDTAVYYCAEGKETYSGPNWFDPWGQGTLVTVSS VL: DIQMTQSPSSVSASVGDRVTITCRASQGISSWLAWYQQKPGKAPKLLIYAASSLQSGVPSRFSGSGSGTDFTLTISSLQPEDFATYYCQQAIYFPITFGGGTKVEIK	0.379	–	no binding (tested: 100 nM)
SA-56-93 (antibody, V domains shown, IgG) VH: EVQLLESGGGVVQPGRSLRLSCAASGFTFSYYGMSWVRQAPGKGLEWVASIWVDGSNKYYADSVKGRFTISRDNSKNALYLQMNSLRAEDTAVYYCAVSRETYSGPNWFDPWGQGTLVTVSS VL: DIQMTQSPSSVSASVGDRVTITCRASQGISSWLAWYQQKPGKAPKLLIYAASSLQSGVPSRFSGSGSGTDFTLTISSLQPEDFATYYCQQAIYFPITFGGGTKVEIK	0.862	–	no binding (tested: 100 nM)
